Results: patent US20120003245A1 (UNIVERSITY OF GUELPH, published 2012)

Molecular target: α-cobratoxin (Naja kaouthia, UniProt P01391)
Sequence (P01391 whole entry): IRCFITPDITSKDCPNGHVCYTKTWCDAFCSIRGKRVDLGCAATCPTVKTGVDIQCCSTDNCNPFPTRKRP

Binder | Kd [nM] | koff [s⁻¹] | kon [M⁻¹ s⁻¹]
anti-α-cobratoxin VHH C2 (VHH) VHH: QVKLEESGGGLVLPGGSLRLSCAASGSISSIYAMGWYRQAPGKQREVVAVITNGNSPNYADSVKGRFTISRDNAKNTVYLQMNSLKPEDTAVYYCNVEGVRYGDSWYDGDYWGQGTQVTVSS | 0.4 | 0.00019 | 520000
anti-α-cobratoxin VHH C20 (VHH) VHH: QVKLEESGGGLVQPGGSLRLSCVGSGSISSFNGMGWYRQVPGKQRELVAFISSGGRSKYTDSVKGRFTISGDNAKSTVYLQMINLKPEDTAVYYCNVGSVLSYVTGNYYEPSDYWGQGTQVTVSS | 1 | 0.0017 | 1.8e+06
anti-α-cobratoxin VHH C43 (VHH) VHH: RVKLEESGGGLVQAGGSLRLSCAVSGSTFDDYAIGWYRQAPGKQREVVAVITNGNSPNYADSVKGRFTISRDNAKNTVYLQMNSLKPEDTAVYYCNVEGVRYGDSWYDGDYWGQGTQVTVSS | 24 | 0.0068 | 290000
anti-α-cobratoxin VHH C19 (VHH) VHH: QVKLEESGGGLAQAGGSLRLSCIGSGDISSFNAMGWYRQVPGKQRELVAFISSGGRSKYTDSVKGRFTISGDNAKNTVYLQMIDLKPEDTAVYYCNAGSVVSYETGNYYEPSNYWGQGTQVTVSS | 25 | 0.01 | 580000
